One data set has as its target T1, GspM (P. aeruginosa, UniProt P25061 1-174).
T1 sequence: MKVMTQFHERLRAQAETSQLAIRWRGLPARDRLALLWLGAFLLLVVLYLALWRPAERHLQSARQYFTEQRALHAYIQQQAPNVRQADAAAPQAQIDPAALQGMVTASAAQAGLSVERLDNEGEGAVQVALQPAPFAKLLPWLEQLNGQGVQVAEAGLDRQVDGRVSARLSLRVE
The data set is described as follows: SEC-MALS. On the technique in general: SEC sorts molecules by how far they enter the pores of the column.

The data set “SEC-MALS” concerns the molecule itself. In words: SEC-MALS.

As a reminder, the stoichiometry N is a count of units in the complex or per binding partner.

B1: GspL (natural protein)
chain: MSGVSALFLPPASTAGADGELAVWWVQDGECRRAPFAQALAEIRAPWRLYLPVEAVTACAVNLPTQKARWLRQSLPFAVEEQLADDVEQMHLALGPALADGRHRVFAVQRTWLAAWLALAEGAGKAPASLHVDADCLPGEGSCLFWLEERWLLGGSGAVRLACGSEDWPVLRDSCPPPQRAFAAQEVAPLEGVEVQALAGNPHVWLSEQPLGTDLAQAEFAARQQSSQWRRWRPLLGLVGLWLVLQWGFTLVQAWQLQREGDRYAAQSAELYRQLFPEDRKLINLRAQFDQHLADSASSGGEGQLLGLLGQAATVIGGEPTVSVEQLDFSAARGDVALQVRAPGFDVLERLRSRLSESGLAVQLGSASRDGSTVSARLVIGG
Take B1: the “stoichiometry N” value in the data set with GspM was 1 GspL per GspM (printed as 2:2).

B2: GspL^peri (domain or fragment)
chain: WQLQREGDRYAAQSAELYRQLFPEDRKLINLRAQFDQHLADSASSGGEGQLLGLLGQAATVIGGEPTVSVEQLDFSAARGDVALQVRAPGFDVLERLRSRLSESGLAVQLGSASRDGSTVSARLVIGG
For B2, the “stoichiometry N” value in “SEC-MALS” came to 2.

(Values after paper doi:10.1101/2020.03.20.999888 (bioRxiv, 2020).)
